In patent US20170368132A1 (published 2017):

Experiments:
S. cerevisiae Rad51 = target: T1, S. cerevisiae Rad51 (S. cerevisiae, UniProt P25454 1-400, limits assumed); experiment: yeast two-hybrid, growth on -ADE -HIS
T1 construct: Y2H fusion in yeast
T1 sequence (looked up): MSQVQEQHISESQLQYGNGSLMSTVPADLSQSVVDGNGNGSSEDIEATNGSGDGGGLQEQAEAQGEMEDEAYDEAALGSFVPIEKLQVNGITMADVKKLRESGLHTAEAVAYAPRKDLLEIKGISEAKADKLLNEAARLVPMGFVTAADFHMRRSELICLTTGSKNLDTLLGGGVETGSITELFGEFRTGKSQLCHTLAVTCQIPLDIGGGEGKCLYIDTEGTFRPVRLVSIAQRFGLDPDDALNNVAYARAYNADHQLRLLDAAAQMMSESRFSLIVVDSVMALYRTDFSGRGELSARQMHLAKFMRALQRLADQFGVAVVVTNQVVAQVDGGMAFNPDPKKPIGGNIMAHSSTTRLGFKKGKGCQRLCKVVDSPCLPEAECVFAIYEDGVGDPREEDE
Method: (§1) RAD51-binding peptides were tested for ability to bind RAD51 of several different species using a “conventional” Y2H assay, where interaction between the two-hybrid pair drove expression of ADE2 and HIS genes. In this Y2H assay the two-hybrid pair was RAD51 and the compound 5 peptide sequence (SEQ ID NO.:5), so that cells having the interaction would survive (+) and cells not having the interaction would die (−) on selective media (−ADE, −HIS).

G. gallus Rad51 = target: T2, G. gallus Rad51 (G. gallus, UniProt P37383 1-339, limits assumed); experiment: yeast two-hybrid, growth on -ADE -HIS
T2 construct: Y2H fusion in yeast
T2 sequence (looked up): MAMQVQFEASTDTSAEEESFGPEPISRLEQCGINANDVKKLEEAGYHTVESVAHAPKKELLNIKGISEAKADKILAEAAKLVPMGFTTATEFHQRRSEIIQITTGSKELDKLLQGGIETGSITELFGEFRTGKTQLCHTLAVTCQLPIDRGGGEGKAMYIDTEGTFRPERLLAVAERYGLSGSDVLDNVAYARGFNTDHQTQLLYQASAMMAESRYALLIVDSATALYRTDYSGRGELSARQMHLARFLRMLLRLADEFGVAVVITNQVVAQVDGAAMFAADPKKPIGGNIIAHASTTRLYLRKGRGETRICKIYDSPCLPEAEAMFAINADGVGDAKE
Method: as §1

S. pombe Rad51 = target: T3, S. pombe Rad51 (S. pombe, UniProt P36601 1-365, limits assumed); experiment: yeast two-hybrid, growth on -ADE -HIS
T3 construct: Y2H fusion in yeast
T3 sequence (looked up): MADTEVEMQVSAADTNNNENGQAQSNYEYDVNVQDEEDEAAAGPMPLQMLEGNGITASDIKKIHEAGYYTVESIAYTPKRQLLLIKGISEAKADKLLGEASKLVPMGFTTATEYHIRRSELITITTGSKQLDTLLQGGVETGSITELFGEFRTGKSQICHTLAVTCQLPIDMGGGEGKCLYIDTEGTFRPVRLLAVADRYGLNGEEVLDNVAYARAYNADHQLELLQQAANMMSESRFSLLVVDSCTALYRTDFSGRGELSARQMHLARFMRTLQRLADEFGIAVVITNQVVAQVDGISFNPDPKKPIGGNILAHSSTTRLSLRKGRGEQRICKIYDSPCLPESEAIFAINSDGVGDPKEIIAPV
Method: as §1

[1] = target: T4, S. cerevisiae Rad51 (1-278) + H. sapiens Rad51 (218-339) (S. cerevisiae; H. sapiens, UniProt P25454 1-278); experiment: yeast two-hybrid, RAD51 hybrid construct
T4 construct: range 1-278; Y2H fusion in yeast; also called cerevisiae-sapiens hybrid construct of RAD51
T4 sequence: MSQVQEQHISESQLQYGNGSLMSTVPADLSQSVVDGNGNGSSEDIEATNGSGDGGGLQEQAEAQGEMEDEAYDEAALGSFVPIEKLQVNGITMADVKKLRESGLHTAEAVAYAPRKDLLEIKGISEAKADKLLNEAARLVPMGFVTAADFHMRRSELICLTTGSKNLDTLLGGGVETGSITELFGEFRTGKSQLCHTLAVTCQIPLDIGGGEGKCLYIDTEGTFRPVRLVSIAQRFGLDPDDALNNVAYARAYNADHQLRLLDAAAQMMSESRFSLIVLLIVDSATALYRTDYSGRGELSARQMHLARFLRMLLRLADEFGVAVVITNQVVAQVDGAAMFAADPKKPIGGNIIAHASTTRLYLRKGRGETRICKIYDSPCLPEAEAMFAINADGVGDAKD

What does the source list for KRRRRRRRKRLGVRLRVSRML [compound 5 peptide sequence (SEQ ID NO.:5)]?
binding result (S. cerevisiae Rad51): no binding; binding result (G. gallus Rad51): binds; binding result (S. pombe Rad51): binds; binding result [1]: no binding
